We go through nine molecules from patent publication US20220033501A1 (SHANGHAI PHARMAEXPLORER, published 2022).

Assay [1] addresses T1, human TIM-3 extracellular domain protein with hFc tag (hTIM-3-hFc) (human, UniProt Q8TDQ0 22-200).
T1 construct: not shown: human IgG Fc fragment (hFc) of the pCpC vector
T1 sequence: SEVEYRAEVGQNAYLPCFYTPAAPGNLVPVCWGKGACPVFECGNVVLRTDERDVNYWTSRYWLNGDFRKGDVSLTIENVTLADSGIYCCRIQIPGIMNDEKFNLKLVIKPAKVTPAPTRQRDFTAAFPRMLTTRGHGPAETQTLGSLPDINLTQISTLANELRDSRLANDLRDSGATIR
Kind of assay: FACS, blocking of hTIM-3-hFc binding to phosphatidylserine on apoptotic Jurkat cells, 0.823 nM antibody. As for the experimental part: Jurkat cells were treated with 1 μM staurosporine at 37° C. for 2 hours to induce apoptosis. The presence of phosphatidylserine was detected by Annexin V-FITC cell apoptosis detection kit. […] The cells were washed 1-2 times with PBS buffer, and after cell counting, the cells were diluted to 1-2×10⁶ cells per milliliter with binding buffer, and added to a 96-well FACS reaction plate at 100 microliters per well. The antibody sample to be tested and 2 μg/ml hTIM-3-hFc protein were prepared with binding buffer, and mixed equally in volume. The mixture was incubated at room temperature for 30 minutes, then the FACS reaction plate incubated with apoptotic cells was centrifuged to discard the supernatant, and the above mixture was added to the apoptotic cells at 100 microliters per well and incubated at room temperature for 1 hour. The plate was washed twice with the binding buffer by centrifugation, added with 100 microliters of fluorescent (Alexa 488)-labeled secondary antibodies per well, and incubated for half an hour. The plate was washed 2-3 times with the binding buffer by centrifugation, added with 100 microliters of PBS per well to suspend cells, and detected using FACS (FACS Calibur, BD) and the results were analyzed. The results are shown in Table 15 and FIG. 15, wherein the IgG control is human IgG, and the data in the table is the inhibition rate (%).
Background: In flow cytometry, cells or beads pass a laser one at a time.

Assay [2] deals with T2, human TIM-3, full length, on cells (human, UniProt Q8TDQ0 22-301).
T2 construct: Also used here for native TIM-3 on PBMC in the functional rows; also called CHOK1-hTIM-3; HEK293-h TIM-3
T2 sequence: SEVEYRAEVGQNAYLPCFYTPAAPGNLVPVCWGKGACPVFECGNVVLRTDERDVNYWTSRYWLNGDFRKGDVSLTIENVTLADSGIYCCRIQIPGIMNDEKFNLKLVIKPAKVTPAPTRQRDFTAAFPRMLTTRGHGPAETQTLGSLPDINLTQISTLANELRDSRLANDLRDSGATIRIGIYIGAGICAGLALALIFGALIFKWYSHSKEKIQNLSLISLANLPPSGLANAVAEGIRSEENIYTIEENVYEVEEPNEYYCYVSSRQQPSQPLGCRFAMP
Kind of assay: FACS, CHOK1-hTIM-3 cells; antibody 1.6 nM. The text has this: (§1) The pIRES plasmid containing the full-length nucleotide sequence encoding human TIM-3 as described in Example 1 was transfected into CHOK1 cell line to obtain a CHOK1 stable cell line containing human TIM-3 (herein referred to as CHOK1-hTIM-3 stable cell line). The pIRES plasmid containing the full-length gene of monkey TIM-3 was transfected into CHOK1 cell line to construct a CHOK1 stable cell line containing monkey TIM-3 (herein referred to as CHOK1-cTIM-3 stable cell line). The CHOK1-hTIM-3 stable cell line and CHOK1-cTIM-3 stable cell line were expanded to a confluence of 90% in a T-75 cell culture flask. The medium was aspirated, and the cells were washed with HBSS (Hanks' Balanced Salt Solution) 1-2 times, and then treated with an enzyme-free cell dissociation solution (Versene solution: Life technology) and the cells were collected. The cells were washed with HBSS buffer for 1-2 times. After counted, the cells were diluted with HBSS to 1-2×10⁶ cells per ml, added with 1% goat serum blocking solution, incubated on ice for 20-30 minutes, and then washed with HBSS by centrifugation 2 times. The collected cells were suspended in the FACS buffer (HBSS+1% BSA) to 2×10⁶ cells/ml, added as 100 microliters per well to a 96-well FACS reaction plate, added with 100 microliters per well of the antibody sample to be tested, incubated on ice for 1-2 hours. The plate was washed twice with the FACS buffer by centrifugation, added with 100 microliters of fluorescent (Alexa 488)-labeled secondary antibodies per well, and incubated on ice for 0.5-1.0 hours. The plate was washed 2-3 times with FACS buffer by centrifugation, added with 100 μl fixative solution (4% Paraformaldehyde) per well to suspend the cells. 5-10 minutes later, it was washed 1-2 times with FACS buffer by centrifugation. The cells were suspended with 100 microliters of FACS buffer, FACS (FACSCalibur, BD) was used for detection and the results were analyzed. The results are shown in FIGS. 7 and 8, Tables 7 and 8, wherein the IgG control is rat IgG, and the data in the table are the average fluorescence intensity values of the cell populations measured by MFI.

Assay [3] deals with T2, human TIM-3, full length, on cells. Kind of assay: FACS, CHOK1-hTIM-3 cells; antibody 0 nM (blank).
Excerpt: as §1

B1: 134H3G6 fully human TIM-3 antibody (human IgG4, kappa) (antibody, V domains shown)
VH: EVQLVESGGGLVQPGGSLRLSCAASGFTFSNSWMTWVRQAPGKGLEWVANIKQAGTEKYYVDSVKGRFTISRDNAKNSLYLQMNSLRAEDTAVYYCNSGSNYFDYWGQGTLVTVSS
VL: EIVMTQSPATLSVSPGERATLSCRARQNFYSNLAWYQQKPGQAPRLLIYGASTRATGIPARFSGSGSGTEFTLTISSLQSEDFAVYYCQQYNNWPLTFGGGTKVEIK
Consider B1, for which, in assay [1], the “Inhibition ratio (%)” value is 6.1%.

B2: 18D2H2 fully human TIM-3 antibody (human IgG4, kappa) (antibody, V domains shown)
VH: EVQLVESGGDLVQPGGSLRLSCAASGFTFSTYWMTWVRQAPGRGLEWVANIKQDGSAKYYVDSVKGRFTLSRDDAKNSLYLQMNSLRAEDTAVYYCARGSNWFDYWGQGTLVTVSS
VL: ETVMTQSPATLSVSPGERATLSCRANQNVYSNLAWYQQKPGQAPRLLIYDASTRATGFPARFSGSGSGTEFTLTISSLQSEDFAVYYCQQYNNWPLTFGGGTKVEIK
As for B2, in assay [1], the “Inhibition ratio (%)” value was 3.9%.

B3: 134H3G6 (TIM-3 antibody purified from hybridoma, chimeric antibody of Example 2) (antibody, V domains shown)
VH: EVQLVESGGGLVQPGGSLRLSCAASGFTFSNSWMTWVRQAPGKGLEWVANIKQAGTEKYYVDSVKGRFTISRDNAKNSLYLQMNSLRAEDTAVYYCNSGSNYFDYWGQGTLVTVSS
VL: EIVMTQSPATLSVSPGERATLSCRARQNFYSNLAWYQQKPGQAPRLLIYGASTRATGIPARFSGSGSGTEFTLTISSLQSEDFAVYYCQQYNNWPLTFGGGTKVEIK
notes: From hybridoma of Harbour H2L2 transgenic mice: human variable regions, rat constant regions
B3: the Mean fluorescence intensity came to 50 in assay [2] and 3 in assay [3].

B4: 57F4E5 (TIM-3 antibody purified from hybridoma, chimeric antibody of Example 2) (antibody, V domains shown)
VH: EVQLVESGGGLVQPGGSLRLSCAASGFTFSSYWMSWVRQAPGKGLEWVANIKQDGSEKYYVDSVKGRFTISRDSAKNSLYLQMNSLRAEDTAMYFCARDSNFFDYWGQGTLVTVSS
VL: ETVMTQSPATLSVSPGERATLSCRASQSVSSNLAWYQRKPGQAPRLLIYFSSTRATGIPARFSGSGSGTEFTLTISSLQSEDFAVYYCQQYNNWPLTFGGGTKVEIK
notes: as for B3
Turning to B4, the Mean fluorescence intensity was determined as 390 in assay [2] and 2.9 in assay [3].

B5: 18D2H2 (TIM-3 antibody purified from hybridoma, chimeric antibody of Example 2) (antibody, V domains shown)
VH: EVQLVESGGDLVQPGGSLRLSCAASGFTFSTYWMTWVRQAPGRGLEWVANIKQDGSAKYYVDSVKGRFTLSRDDAKNSLYLQMNSLRAEDTAVYYCARGSNWFDYWGQGTLVTVSS
VL: ETVMTQSPATLSVSPGERATLSCRANQNVYSNLAWYQQKPGQAPRLLIYDASTRATGFPARFSGSGSGTEFTLTISSLQSEDFAVYYCQQYNNWPLTFGGGTKVEIK
notes: as for B3
With B5, the figures for the Mean fluorescence intensity in assay [2] and in assay [3] were 40.2 and 2.9, respectively.

B6: 7A4F10 fully human TIM-3 antibody (human IgG4, kappa) (antibody, V domains shown)
VH: EVQLLESGGGLVQPGGSLRLSCAASGFTFRTHLISWVRQAPGKGLEWVAAITGSGGSTYYADSVKGRFIISRDNSKNTLFLQMNSLRAEDTAVYYCAKDGGSGSYDDFWGQGTLVTVSS
VL: ETVLTQSPVTLSLSPGERATLSCRASQSVGSYLAWYQQKPGQAPRLLIYDASNRATGIPARFSGSGSGTDFTLTISSLEPEDFAVYYCQQRSNWPPTFGQGTKVEIK
Regarding B6, the “Inhibition ratio (%)” value in assay [1] was 5.7%.

B7: 7A4F10 (TIM-3 antibody purified from hybridoma, chimeric antibody of Example 2) (antibody, V domains shown)
VH: EVQLLESGGGLVQPGGSLRLSCAASGFTFRTHLISWVRQAPGKGLEWVAAITGSGGSTYYADSVKGRFIISRDNSKNTLFLQMNSLRAEDTAVYYCAKDGGSGSYDDFWGQGTLVTVSS
VL: ETVLTQSPVTLSLSPGERATLSCRASQSVGSYLAWYQQKPGQAPRLLIYDASNRATGIPARFSGSGSGTDFTLTISSLEPEDFAVYYCQQRSNWPPTFGQGTKVEIK
notes: as for B3
B7: the Mean fluorescence intensity in assay [2] stood at 15.4; in assay [3], 2.9.

B8: 215A8F2 fully human TIM-3 antibody (human IgG4, kappa) (antibody, V domains shown)
VH: QVQLQQWGAGLLKPSETLSLTCTVYGGSFSGYYWNWIRQPPGKGLEWLGEINHSGSTNYNPSLKRRVTISVDTSKNQFSLKLSSVTAADTAVYYCARVYYYGPFDFWGQGTLVTVSS
VL: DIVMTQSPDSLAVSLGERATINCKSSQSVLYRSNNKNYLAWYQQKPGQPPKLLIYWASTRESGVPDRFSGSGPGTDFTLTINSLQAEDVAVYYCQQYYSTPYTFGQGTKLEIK
In the case of B8, the “Inhibition ratio (%)” value in assay [1] is -4.4%.

B9: 215A8F2 (TIM-3 antibody purified from hybridoma, chimeric antibody of Example 2) (antibody, V domains shown)
VH: QVQLQQWGAGLLKPSETLSLTCTVYGGSFSGYYWNWIRQPPGKGLEWLGEINHSGSTNYNPSLKRRVTISVDTSKNQFSLKLSSVTAADTAVYYCARVYYYGPFDFWGQGTLVTVSS
VL: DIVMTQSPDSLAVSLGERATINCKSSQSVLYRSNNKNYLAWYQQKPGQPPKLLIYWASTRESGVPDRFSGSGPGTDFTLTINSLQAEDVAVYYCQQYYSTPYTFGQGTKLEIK
notes: as for B3
Take B9: the results for the Mean fluorescence intensity in assay [2] and in assay [3] were 214 and 3, respectively.
